In PMC2121097:
Read-outs that look alike come from different tables or passages of the source.

What was measured:
[1] = biological target: Dictyostelium actin monomer (G-actin) (Dictyostelium) (UniProt P07830); assay: other fluorescence titration
[2] = biological target: Dictyostelium actin monomer (G-actin) (Dictyostelium) (UniProt P07830); assay: other fluorescence titration; remark: listed apart in the source
[3] = biological target: Dictyostelium actin monomer (G-actin) (Dictyostelium) (UniProt P07830); assay: other fluorescence titration; remark: listed apart in the source
[4] = biological target: Dictyostelium actin filaments (F-actin) (Dictyostelium) (UniProt P07830); assay: steady-state actin critical concentration, uncalibrated pyrene fluorescence
[5] = biological target: Dictyostelium actin filaments (F-actin) (Dictyostelium) (UniProt P07830); assay: steady-state actin critical concentration, calibrated pyrene fluorescence
[6] = biological target: Dictyostelium actin filaments (F-actin) (Dictyostelium) (UniProt P07830); assay: steady-state actin critical concentration, sedimentation

Kd [1]: 700 nM
Kd [2]: 3900 nM
Kd [3]: 1400 nM
Kd [4]: 920 nM
Kd [5]: 140 nM
Kd [6]: 400 nM
Substance: Dictyostelium elongation factor 1 alpha (EF1 alpha) (from UniProt P0CT31 1-453) (natural protein)
